Experimental data as given in patent publication US20090181444A1, “MODIFIED CARBOHYDRATE PROCESSING ENZYME” (priority 2002, published 2009).

Legend:
Type in all cases: biochemical
[1] = Hydrolysis of 4-methylumbelliferyl-β-D-xyloside, initial rates; settings: 80° C., pH 6.5
Method: (§1) Parameters were determined by the method of initial rates. Activity was measured in time course assays of the hydrolysis of 4-methylumbelliferyl-β-D-glycosides (β-D-gluco, β-D-galacto, β-D-fuco, β-D-manno, β-D-xylo, β-D-glucurono) at 5-15 concentrations (0.001-1.5 mM) incubated at 80° C. in 50 mM sodium phosphate buffer, pH 6.5. Reactions were terminated at 2, 5, 10, 15 min by the addition of 100 μl of ice cold 1M NazCO3, pH 10 and analyzed (Labsystems Fluoroscan Ascent plate reader, […]). KM and kcat were derived by fitting the initial rates to hyperbolic Michaelis-Menten curves using GraFit 4 (Erithacus Software Ltd, Staines, UK).
(§2) Determination of the Michaelis-Menten parameters for the WT and mutant enzymes was performed at pH 6.5 at 80° C. for a broad range of representative, fluorophore-containing 4-methylumbelliferyl glycoside substrates, which allowed activities to be determined with a high degree of sensitivity (Table). Under these optimized assay conditions, the glucoside (Glc), galactoside (Gal) and fucoside (Fuc) substrates were hydrolysed well by SSβG-WT, but the xyloside (Xyl) substrate was hydrolysed relatively poorly (approx. 3% of turnover as determined by kcat compared with β-D-glucoside). […] In all cases the absolute D-stereospecificity and β-stereoselectivity of SSβG was maintained and no activity was detected towards L- or α-glycoside substrates.

[2] = Hydrolysis of 4-methylumbelliferyl-β-D-glucoside, initial rates; settings: 4-MUGlc, 80° C., pH 6.5
Method: as §1, §2

[3] = Hydrolysis of 4-methylumbelliferyl-β-D-glucuronide, initial rates; settings: 80° C., pH 6.5
Method: as §1, §2

[4] = Hydrolysis of 4-methylumbelliferyl-β-D-galactoside, initial rates; settings: 4-MUGal, 80° C., pH 6.5
Method: as §1, §2

[5] = Hydrolysis of 4-methylumbelliferyl-β-D-mannoside, initial rates; settings: 80° C., pH 6.5
Method: as §1, §2

[6] = Kinetic assay with p-nitrophenyl β-D-galactopyranoside, absorbance at 405 nm; settings: pNPGal
Method: The kinetic activity of SsδG was assessed using ultra-violet/visible spectroscopy. Cleavage of the glycosidic bond of the nitrophenyl sugar analogue releases a chromophore (Scheme 18), either p-nitrophenol or o-nitrophenol.
The absorbance of these chromophores at 405 nm was continuously measured at regular time intervals, and the Beer-Lambert Law used to calculate the chromophore concentration at each of these time intervals.
In order to use this equation the extinction coefficient, ∈, of both p-nitrophenol and o-nitrophenol were calculated. Enzyme kinetic parameters were assessed using the initial rates method. The gradient of a plot of chromophore concentration against time gave the initial rate of reaction at a series of substrate concentrations (0.05-10 mM). Kinetic parameters were calculated by regression analysis of the kinetic data on the Michaelis-Menten Model (Fersht, A., Enzyme Structure and Mechanism, W.H. Freeman and Company, New York (1985)). The initial rate of reaction was measured. This model is valid when [substrate]>>[enzyme], which are initial rate conditions.
KM and νmax were calculated from non-linear Michaelis-Menten and linear Lineweaver-Burk plots. From these values, kcat and kcat/KM were calculated and compared.
KM=νmax/2, it is the concentration of substrate at which half the active sites are filled. Higher KM values correspond to weaker binding and lower KM values correspond to stronger binding kcat, the turnover number is the number of substrate molecules which are converted to product when the enzyme is saturated with substrate and ν (rate) is maximised. Given both of these considerations, binding and rate, kcat/KM is typically as a measure of the overall relative activity of the enzyme. To allow comparison of the activity of the enzymes, ln({kcat/KM}mutant/{kcat/KM}WT) was calculated for each enzyme-substrate combination, to give overall activity relative to WT.
Substrate solutions (concentration 10 mM in 50 mM pH 6.5 phosphate buffer) were prepared. Kinetic assays were conducted in a 96-well flat bottom microtitre plate. Eight substrate concentrations were chosen for the assay from the range 0.05 mM to 10 mM (prepared from 10 mM stock solution), based on previous experimental experience of the kinetics of each enzyme (default range 0.05 mM to 2.00 mM)*. The enzyme stock solution (˜1 mgmL^−1) was diluted between 16- and 80-fold depending on the kinetic parameters determined*. The enzyme solution (496 µL) was dispensed into a 1.5 mL sealed Eppendorf tube. Into eight further Eppendorf tubes a portion of each substrate solution (650 μL) was dispensed. The tubes were incubated in a Techni Dri Block at 45° C. Simultaneously a 96-well flat bottom microtitre plate was incubated at 45° C. in a plate reader. […] The plate containing the enzyme and substrate solutions was then incubated in the plate reader at 45° C. to allow equilibration. […] Release of p-nitrophenol/o-nitropbenol was measured by absorbance at […], with an automix of 3 s before the first read and Is between every subsequent read. The run time chosen was between 6 min and 10 min*, and readings were taken at intervals of between 6 s and 10 s*.
A graph of concentration of the released chromophore (either pNP or oNP) against time was drawn for each concentration using Microsoft Excel. […] These gradients were entered into Grafit, which calculated KM and νmax from the Michelis-Menten and Lineweaver-Burk plots. From these kcat and kcat/KM could be calculated. […]

B1: WT: Wild type β-glycosidase from Sulfolobus solfataricus (SEQ ID NO: 2), recombinant with N-terminal His6-tag (protein, listed as Sulfolobus solfataricus)
chain: MYSFPNSFRFGWSQAGFQSEMGTPGSEDPNTDWYKWVHDPENMAAGLVSGDLPENGPGYWGNYKTFHDNAQKMGLKIARLNVEWSRIFPNPLPRPQNFDESKQDVTEVEINENELKRLDEYANKDALNHYREIFKDLKSRGLYFILNMYHWPLPLWLHDPIRVRRGDFTGPSGWLSTRTVYEFARFSAYIAWKFDDLVDEYSTMNEPNVVGGLGYVGVKSGFPPGYLSFELSRRHMYNIIQAHARAYDGIKSVSKKPVGIIYANSSFQPLTDKDMEAVEMAENDNRWWFFDAIIRGEITRGNEKIVRDDLKGRLDWIGVNYYTRTVVKRTEKGYVSLGGYGHGCERNSVSLAGLPTSDFGWEFFPEGLYDVLTKYWNRYHLYMYVTENGIADDADYQRPYYLVSHVYQVHRAINSGADVRGYLHWSLADNYEWASGFSMRFGLLKVDYNTKRLYWRPSALVYREIATNGAITDEIEHLNSVPPVKPLRH
modifications: N-terminal His6 tag
[1]; 4-MUXyl
  Km: 130 ± 30 µM
  kcat: 3.8 ± 0.3 s⁻¹
[1]
  turnover (kcat) towards xyloside compared with β-D-glucoside: approx. 3%
[2]
  Km: 46 ± 17 µM
  kcat: 140 ± 20 s⁻¹
[3]; 4-MUGlcA
  kcat: 0.81 ± 0.18 s⁻¹
[3]; 4-MUGlcA, read-out: Km
  Km: 1.3 ± 0.4 mM
[3]
  β-D-glucuronide activity, turnover relative to β-D-glucoside: ~0.5%
[4]
  Km: 66 ± 17 µM
  kcat: 98 ± 7 s⁻¹
[5]; 4-MUMan
  Km: 36 ± 9 µM
  kcat: 1.8 ± 0.2 s⁻¹
[5]
  β-D-mannoside activity, turnover relative to β-D-glucoside: approx. 1%
[6]; 45° C., pH 6.5 phosphate buffer, averaged over 3 runs, except * 2 runs
  kcat: 5.07 s⁻¹
[6]; 45° C., pH 6.5 phosphate buffer, averaged over 3 runs, except * 2 runs, read-out: KM
  Km: 459 µM
[6]; read-out: average KM
  Km: 459 µM
